Data taken from the supplement of paper PMC10567573.
± gives the standard deviation.

Assay: protein stability index of a GFP-peptide fusion (GPS, HEK-293T) (PSI 1-6); higher = more stable
[1] = treatment: DMSO, c terminus: a fixed tail appended
[2] = treatment: MLN4924 1 uM, 8 h, c terminus: a fixed tail appended
[3] = treatment: DMSO, c terminus: native
[4] = treatment: MLN4924 1 uM, 8 h, c terminus: native
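Note: 24-mer peptide tiles fused after GFP, lentivirally expressed, FACS-sorted into six equal bins by GFP/DsRed ratio, decoded by Illumina sequencing, PSI is the read-weighted mean bin number.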

Sequence | protein stability index [1] | protein stability index [2] | protein stability index [3] | protein stability index [4]
PVLHPSEERAAPVLSCEAATQTER [FAM189A2] | 5.47 ± 0.27 | 5.44 ± 0.13 | – | –
PVPPSEGKSRLSPAGEMKPMPLSE [BCL2L13] | 5.13 ± 0.22 | 5.08 ± 0.073 | – | –
PVYVSCIAQDTCTTTDHSSNPGPV [SPAG8] | 3.75 ± 0.39 | 3.9 ± 0.33 | – | –
PYREDEEGAFGEHGSQGTYSNTKE [MAP2] | 5.66 ± 0.22 | 5.72 ± 0.2 | – | –
QAIQMRLVDVACKHLTDTSHGVRN [INTS4] | 2.52 ± 0.4 | 2.52 ± 0.23 | – | –
QARKRQEEREKEAAEQAERSQSSI [SMARCE1] | 5.26 ± 0.71 | 5.702 ± 0.038 | – | –
QCPGLGPAPTPTPPGRLGAPYSEA [ZBED3] | 4.35 ± 0.15 | 4.25 ± 0.067 | – | –
QCSQRMLSFSDALLSIIATVMILP [TMEM175] | 3.25 ± 0.4 | 3.33 ± 0.3 | – | –
QDLCCRAIVSCTPVHLIDKLPLPV [RAB40C] | 2.4 ± 0.24 | 2.16 ± 0.18 | – | –
QDLIEDLKLARKAYHDPMLKLSIM [NET1] | 2.33 ± 0.38 | 2.46 ± 0.26 | – | –
QDRDALHMEGLIVRERILGADNID [FEM1B] | 4.38 ± 0.39 | 4.29 ± 0.28 | – | –
QEAAERESKLLRDLSAANEKNLLL [LRRC45] | 4.37 ± 0.14 | 4.19 ± 0.13 | – | –
QFRLKEAFDYIKQRRSMVSPNFGF [DUSP5] | 2.19 ± 0.31 | 2.22 ± 0.17 | – | –
QGCPGAKKHEFLTSVLDALSTDMV [SMOC2] | 2.68 ± 0.26 | 3.07 ± 0.27 | – | –
QGEMDRKCKQVKEKCKEEFVEEIK [ZMYND11] | 4.91 ± 0.32 | 5.43 ± 0.24 | – | –
QGITMGCWDMYRHDIDCQWVDITD [LOXL2] | 2.4 ± 0.55 | 2.73 ± 0.42 | – | –
QIEEVFISEEIQMSTKESDFLCLL [MIA2] | 2.51 ± 0.42 | 2.49 ± 0.37 | – | –
QKVVVTTPLHRDKTPLHQKHAAFV [MYBL2] | 3 ± 0.2 | 3.14 ± 0.32 | – | –
QLAAVHLSKSRTDYQPTQAGRLMR [RNF180] | 3.5 ± 0.18 | 3.52 ± 0.26 | – | –
QLAEENERLKQEIERLTREVEATR [DDIT3] | 5.4 ± 0.26 | 5.51 ± 0.32 | – | –
QLAQDDIDGIQAIYGRSQNPVQPI [MMP1] | 3.69 ± 0.1 | 3.9 ± 0.14 | – | –
QLEQVIESQKANQCAVLIYTSGTT [ACSBG2] | 2.52 ± 0.32 | 2.51 ± 0.25 | – | –

Sequence | protein stability index [1] | protein stability index [2] | protein stability index [3] | protein stability index [4]
QLKLDHYRAALRSCSLVLEHQPDN [FKBP8] | 2.93 ± 0.18 | 2.98 ± 0.27 | – | –
QLLCPWAPLSGPQALMLPPGSFWG [VENTX] | 2.41 ± 0.62 | 1.73 ± 0.35 | – | –
QLPPASRCVLVFEQVRFLMKSYSF [SOAT2] | 2.71 ± 0.67 | 1.95 ± 0.1 | – | –
QLQSLCRGLGLGGRRLKSPQAPDP [FANCE] | 3.02 ± 1 | 3.16 ± 0.74 | – | –
QLQVPTLRQQCAQVLRNNPDALSD [ELOA2] | 4.24 ± 0.36 | 4.42 ± 0.13 | – | –
QLVVMHPTPQVDELDILPIHPPSG [BTBD10] | 3.74 ± 0.1 | 3.75 ± 0.11 | – | –
QQCMLEILDTAGTEQFTAMRDLYM [RAP1B] | 2.53 ± 0.25 | 2.6 ± 0.2 | – | –
QQQQAMSFAILRIIRLVRVFRIFK [KCNA4] | 2.71 ± 0.24 | 3.01 ± 0.26 | – | –
QQRSKDLESRQRSLEQANRSLQLR [TFE3] | 4.76 ± 0.062 | 4.655 ± 0.041 | – | –
QQYAAQQYPGNYEQQQILIRQLQE [ACBD3] | 4.07 ± 0.19 | 4.06 ± 0.22 | – | –
QSFISWTGDGWEFKLADPDEVARR [ETS2] | 3.58 ± 0.1 | 3.76 ± 0.19 | – | –
QSPVSPQPPAITQVHRQGERRREL [SMTNL2] | 5.26 ± 0.14 | 5.12 ± 0.42 | – | –
QSRANGVKYPELVLEHSLDREEEA [PCDHGA10] | 5.29 ± 0.12 | 5.31 ± 0.15 | – | –
QSTVKCLTVLQRLDVWLSGGNDLC [WDR41] | 2.6 ± 0.63 | 2.32 ± 0.4 | – | –
QVANSAFVERVRKRGFEVVYMTEP [HSP90AB1] | 2.49 ± 0.4 | 2.64 ± 0.24 | – | –
QVEGLTVQYLGQAPELLGGAEPGT [ADAMTS4] | 4.53 ± 0.51 | 4.87 ± 0.4 | – | –
QVGAKGDTANEIGQVLHFENVKDV [SERPINB5] | 4.94 ± 0.37 | 5.19 ± 0.24 | – | –
QWNAGEKKLTGGANWQPKVAPATW [SNAP91] | 2.98 ± 0.33 | 3.07 ± 0.14 | – | –
QYFTNRLDMSQNVSLVTAELSKDA [SLC29A1] | 4.2 ± 0.21 | 4.25 ± 0.24 | – | –
QYMNEGELRVLADTYDSVYLHPNS [HDAC6] | 2.83 ± 0.21 | 3.33 ± 0.52 | – | –
RADAHLGSSSVALPKEASDGTGAS [TOR1AIP2] | 5.5 ± 0.24 | 5.33 ± 0.12 | – | –
RAEKEACQREKELPAAVHPFHFV [ZBED2] | – | – | 4.87 ± 0.39 | 4.8 ± 0.34

Sequence | protein stability index [1] | protein stability index [2] | protein stability index [3] | protein stability index [4]
RAGEQRKRSQSMKSYPSSELRNMC [CLCN6] | 4.29 ± 0.078 | 4.37 ± 0.21 | – | –
RALEEANTELEVKIRDWYQRQAPG [KRT17] | 3.37 ± 0.16 | 3.58 ± 0.4 | – | –
RDFLLDEANGLLPDDKLTLFCEVS [SPOPL] | 3.03 ± 0.2 | 3.08 ± 0.34 | – | –
RDPPRPGPSRPAEKPPRPEAKSAQ [GCH1] | 5.33 ± 0.35 | 5.1 ± 0.045 | – | –
RDTFYKEQLERIERKNAEMYKLSS [CHCHD6] | 3.5 ± 0.12 | 3.79 ± 0.43 | – | –
REEQCAAYNHRTDLFKSFPGPMDW [ADAMTS4] | 3.06 ± 0.45 | 3.1 ± 0.3 | – | –
RELLEFTHMYLQSDDEMELEETEP [P3H4] | 4.98 ± 0.18 | 5.15 ± 0.22 | – | –
RFEQEAVAVDSNLRVRELQRKVDG [CCDC89] | 4.98 ± 0.28 | 4.9 ± 0.29 | – | –
RFPYLCQKNGGGAYLVPYLVLLII [SLC6A17] | 2.64 ± 1.1 | 2.49 ± 0.94 | – | –
RFYLLLFSFLGLLALGVSLLCNAI [PTGFR] | 2.4 ± 0.26 | 2.57 ± 0.24 | – | –
RGDPAHAGLAELGHRLAQKLQGLE [PBXIP1] | 3.04 ± 0.34 | 3.29 ± 0.32 | – | –
RGDRGPGPALAGEPAGSLRELGVW [C2CD2L] | 3.25 ± 0.14 | 3.55 ± 0.27 | – | –
RGSVARPTQGPETPRSPEGTTEAA [PXN] | 5.39 ± 0.3 | 5.31 ± 0.17 | – | –
RHTLQKLTCEFNNNHESLDEELHL [FBXO39] | 4.38 ± 0.21 | 4.56 ± 0.3 | – | –
RISFCADDKTDKRIFTFICKDSES [GULP1] | 3.52 ± 0.47 | 3.47 ± 0.96 | – | –
RKKTLVPGPPGSSRPVKGQVVTVH [FKBP8] | 3.53 ± 0.31 | 3.46 ± 0.2 | – | –
RKRKKATEAIDSLRKSKRLRNRK [FBXO28] | – | – | 4.97 ± 0.1 | 5.19 ± 0.12
RLEQEIATYRRLLEGEDAHLSSQQ [KRT16] | 3.95 ± 0.097 | 4.21 ± 0.18 | – | –
RLLLAESGLSFITFICYVASSASA [CMTM3] | 2.53 ± 0.94 | 2.43 ± 0.77 | – | –
RLSGLSSVGHNWRKRMGTRRGRHE [C22orf15] | 4.08 ± 0.23 | 4.14 ± 0.19 | – | –
RLVYKFGKNSSGWKEEEVLQSRN [ELF3] | – | – | 2.76 ± 0.35 | 3.21 ± 0.85
